Assays:
Test in all cases: cell-based or functional assay
Abl (h) (human) = Abl (h) (human) (UniProt P00519)
CDK5/p35 (h) (human) = CDK5/p35 (h) (human) (UniProt Q00535)
[1] = target: CDK6/cyclinD3 (h) (human) (UniProt Q00534)
CHK2(R145W) (h) (human) = CHK2(R145W) (h) (human) (UniProt O96017)
EphA1 (h) (human) = target: T1, EphA1 (h) (human) (UniProt P21709)
T1 sequence (looked up): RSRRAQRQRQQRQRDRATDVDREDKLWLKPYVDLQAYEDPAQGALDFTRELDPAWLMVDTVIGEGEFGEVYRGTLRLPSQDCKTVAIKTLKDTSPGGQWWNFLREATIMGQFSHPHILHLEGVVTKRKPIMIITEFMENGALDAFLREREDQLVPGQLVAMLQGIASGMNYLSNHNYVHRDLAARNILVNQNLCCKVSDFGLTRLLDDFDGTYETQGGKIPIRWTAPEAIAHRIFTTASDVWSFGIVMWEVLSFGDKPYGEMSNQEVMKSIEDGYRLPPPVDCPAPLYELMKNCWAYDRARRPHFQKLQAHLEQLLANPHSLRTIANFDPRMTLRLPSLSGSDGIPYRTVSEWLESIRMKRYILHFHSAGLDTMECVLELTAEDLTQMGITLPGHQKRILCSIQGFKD

ErbB4 (h) (human) = ErbB4 (h) (human) (UniProt Q15303)
Chain of ErbB4 (h) (human) (Q15303 706-991 limits assumed): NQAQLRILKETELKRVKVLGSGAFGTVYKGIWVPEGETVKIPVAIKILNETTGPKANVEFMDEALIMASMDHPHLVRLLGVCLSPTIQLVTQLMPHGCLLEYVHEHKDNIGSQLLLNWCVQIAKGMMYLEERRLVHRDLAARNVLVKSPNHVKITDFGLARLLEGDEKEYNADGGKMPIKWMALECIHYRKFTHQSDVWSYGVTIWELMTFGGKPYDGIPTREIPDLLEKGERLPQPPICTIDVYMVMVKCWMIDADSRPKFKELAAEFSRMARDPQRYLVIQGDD

[2] = target: Hck (h) activated (human) (UniProt P08631)
IRAK1 (h) (human) = IRAK1 (h) (human) (UniProt P51617)
JNK1α1 (h) (human) = JNK1α1 (h) (human) (UniProt P45983)
Lyn (h) (human) = Lyn (h) (human) (UniProt P07948)
MINK (h) (human) = MINK (h) (human) (UniProt Q8N4C8)
Met(D1246N) (h) (human) = Met(D1246N) (h) (human) (UniProt P08581)
Met(Y1248C) (h) (human) = Met(Y1248C) (h) (human) (UniProt P08581)
Mnk2 (h) (human) = Mnk2 (h) (human) (UniProt Q9HBH9)
PAK4 (h) (human) = PAK4 (h) (human) (UniProt O96013)
PAK5 (h) (human) = PAK5 (h) (human) (UniProt Q9P286)
PhKγ2 (h) (human) = target: T2, PhKγ2 (h) (human) (UniProt P15735)
T2 sequence (looked up): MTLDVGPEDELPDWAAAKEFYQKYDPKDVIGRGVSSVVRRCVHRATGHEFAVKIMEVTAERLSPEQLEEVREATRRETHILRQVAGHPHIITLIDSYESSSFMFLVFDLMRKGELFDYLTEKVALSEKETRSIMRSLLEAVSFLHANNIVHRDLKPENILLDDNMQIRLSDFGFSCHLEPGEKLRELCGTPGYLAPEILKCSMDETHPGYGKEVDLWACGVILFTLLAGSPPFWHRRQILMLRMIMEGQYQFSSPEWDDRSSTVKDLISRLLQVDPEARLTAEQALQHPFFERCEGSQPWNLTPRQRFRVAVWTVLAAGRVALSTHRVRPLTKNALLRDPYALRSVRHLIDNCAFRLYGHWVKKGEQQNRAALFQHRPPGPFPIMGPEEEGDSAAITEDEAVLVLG

PrKX (h) (human) = target: T3, PrKX (h) (human) (UniProt P51817)
T3 sequence (looked up): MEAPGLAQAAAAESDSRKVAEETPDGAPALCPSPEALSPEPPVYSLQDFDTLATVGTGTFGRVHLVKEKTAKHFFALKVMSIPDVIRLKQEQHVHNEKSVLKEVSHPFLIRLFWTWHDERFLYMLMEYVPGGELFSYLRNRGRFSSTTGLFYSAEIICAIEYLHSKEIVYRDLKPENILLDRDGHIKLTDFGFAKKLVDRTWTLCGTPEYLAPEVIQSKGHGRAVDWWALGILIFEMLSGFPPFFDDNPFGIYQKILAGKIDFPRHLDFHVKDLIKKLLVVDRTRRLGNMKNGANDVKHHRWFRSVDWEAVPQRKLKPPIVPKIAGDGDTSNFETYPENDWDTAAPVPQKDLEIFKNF

Rsk4 (h) (human) = Rsk4 (h) (human) (UniProt Q9UK32)
Chain of Rsk4 (h) (human) (Q9UK32 whole entry): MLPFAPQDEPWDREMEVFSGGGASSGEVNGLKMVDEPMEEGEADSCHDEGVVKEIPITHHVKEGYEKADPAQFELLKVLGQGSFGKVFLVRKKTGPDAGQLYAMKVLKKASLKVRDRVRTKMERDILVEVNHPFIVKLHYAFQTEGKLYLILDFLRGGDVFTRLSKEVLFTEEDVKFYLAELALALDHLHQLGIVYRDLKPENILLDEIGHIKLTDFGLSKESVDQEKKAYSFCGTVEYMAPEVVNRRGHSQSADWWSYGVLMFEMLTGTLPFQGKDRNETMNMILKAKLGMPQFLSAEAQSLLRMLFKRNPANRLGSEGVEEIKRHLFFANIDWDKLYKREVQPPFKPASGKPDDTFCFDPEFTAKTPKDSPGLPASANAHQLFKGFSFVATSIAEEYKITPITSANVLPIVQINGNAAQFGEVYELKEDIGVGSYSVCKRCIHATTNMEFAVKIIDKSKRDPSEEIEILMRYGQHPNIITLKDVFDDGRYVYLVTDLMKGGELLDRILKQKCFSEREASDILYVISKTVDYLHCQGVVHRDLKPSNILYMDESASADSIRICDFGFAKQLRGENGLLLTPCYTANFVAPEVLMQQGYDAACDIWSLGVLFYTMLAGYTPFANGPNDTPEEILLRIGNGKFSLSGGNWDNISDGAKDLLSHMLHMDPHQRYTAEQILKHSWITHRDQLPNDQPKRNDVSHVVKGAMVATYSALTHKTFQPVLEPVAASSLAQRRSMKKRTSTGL

[3] = target: SAPK2a(T106M) (h) (human) (UniProt Q16539)
Chain of SAPK2a(T106M) (h) (human) (Q16539 whole entry T106M): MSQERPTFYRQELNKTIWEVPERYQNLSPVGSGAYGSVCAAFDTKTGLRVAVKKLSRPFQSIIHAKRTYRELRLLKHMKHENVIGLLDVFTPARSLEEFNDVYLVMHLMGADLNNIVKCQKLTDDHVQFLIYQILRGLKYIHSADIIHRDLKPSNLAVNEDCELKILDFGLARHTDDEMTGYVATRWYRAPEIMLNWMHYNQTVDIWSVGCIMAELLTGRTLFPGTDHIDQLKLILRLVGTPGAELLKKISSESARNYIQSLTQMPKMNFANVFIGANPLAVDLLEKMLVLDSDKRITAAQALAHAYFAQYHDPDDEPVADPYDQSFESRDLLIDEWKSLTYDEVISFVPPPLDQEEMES

SAPK2b (h) (human) = SAPK2b (h) (human) (UniProt Q15759)
Chain of SAPK2b (h) (human) (Q15759 whole entry): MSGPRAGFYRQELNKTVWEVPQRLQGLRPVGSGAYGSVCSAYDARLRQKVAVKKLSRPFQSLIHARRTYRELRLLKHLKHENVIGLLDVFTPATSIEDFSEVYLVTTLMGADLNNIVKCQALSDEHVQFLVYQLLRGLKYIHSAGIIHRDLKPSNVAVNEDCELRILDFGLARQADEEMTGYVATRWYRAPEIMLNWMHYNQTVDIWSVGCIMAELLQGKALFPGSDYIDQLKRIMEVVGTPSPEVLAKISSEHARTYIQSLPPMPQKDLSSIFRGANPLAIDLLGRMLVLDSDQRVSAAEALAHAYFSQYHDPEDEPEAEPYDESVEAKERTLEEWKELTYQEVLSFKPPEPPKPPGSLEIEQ

SIK (h) (human) = SIK (h) (human) (UniProt P57059)
TrkA (h) (human) = TrkA (h) (human) (UniProt P04629)
WNK3 (h) (human) = WNK3 (h) (human) (UniProt Q9BYP7)
cKit (h) (human) = cKit (h) (human) (UniProt P10721)
Chain of cKit (h) (human) (P10721 544-976): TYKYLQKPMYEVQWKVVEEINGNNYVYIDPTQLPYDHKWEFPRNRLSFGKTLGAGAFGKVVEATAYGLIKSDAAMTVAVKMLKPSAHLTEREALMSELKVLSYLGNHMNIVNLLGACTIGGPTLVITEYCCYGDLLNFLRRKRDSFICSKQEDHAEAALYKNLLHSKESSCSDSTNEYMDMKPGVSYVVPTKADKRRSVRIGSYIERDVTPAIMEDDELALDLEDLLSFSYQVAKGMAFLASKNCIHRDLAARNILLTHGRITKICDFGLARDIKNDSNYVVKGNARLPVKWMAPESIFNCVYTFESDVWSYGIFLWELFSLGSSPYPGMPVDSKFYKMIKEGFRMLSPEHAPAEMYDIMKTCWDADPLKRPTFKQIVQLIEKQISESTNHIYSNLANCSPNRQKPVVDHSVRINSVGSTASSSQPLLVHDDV

cKit(D816V) (h) (human) = cKit(D816V) (h) (human) (UniProt P10721)
Chain of cKit(D816V) (h) (human) (P10721 544-976 D816V): as the sequence (P10721 544-976) above, with D273V counted along it

Chain of CDK6/cyclinD3 (h) (human) (Q00534 whole entry, chain 1 of 2): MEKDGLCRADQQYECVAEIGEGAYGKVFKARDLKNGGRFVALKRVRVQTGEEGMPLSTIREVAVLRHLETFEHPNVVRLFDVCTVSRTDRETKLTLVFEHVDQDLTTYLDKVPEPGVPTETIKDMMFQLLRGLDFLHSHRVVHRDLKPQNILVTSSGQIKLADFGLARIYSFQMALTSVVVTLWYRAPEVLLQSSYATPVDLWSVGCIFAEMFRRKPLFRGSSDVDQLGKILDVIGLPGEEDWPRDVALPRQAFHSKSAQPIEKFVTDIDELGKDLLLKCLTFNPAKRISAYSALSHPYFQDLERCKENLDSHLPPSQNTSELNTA
Chain of CDK6/cyclinD3 (h) (human) (P30281 whole entry, chain 2 of 2, further chain): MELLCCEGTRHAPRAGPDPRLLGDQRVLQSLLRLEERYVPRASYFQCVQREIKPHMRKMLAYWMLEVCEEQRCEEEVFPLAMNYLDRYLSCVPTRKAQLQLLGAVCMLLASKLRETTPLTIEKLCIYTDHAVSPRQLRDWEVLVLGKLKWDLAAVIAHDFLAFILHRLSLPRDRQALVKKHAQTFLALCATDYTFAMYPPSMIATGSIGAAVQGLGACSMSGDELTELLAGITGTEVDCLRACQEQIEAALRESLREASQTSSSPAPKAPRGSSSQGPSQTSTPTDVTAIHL
Chain of Abl (h) (human) (P00519 27-1130 limits assumed): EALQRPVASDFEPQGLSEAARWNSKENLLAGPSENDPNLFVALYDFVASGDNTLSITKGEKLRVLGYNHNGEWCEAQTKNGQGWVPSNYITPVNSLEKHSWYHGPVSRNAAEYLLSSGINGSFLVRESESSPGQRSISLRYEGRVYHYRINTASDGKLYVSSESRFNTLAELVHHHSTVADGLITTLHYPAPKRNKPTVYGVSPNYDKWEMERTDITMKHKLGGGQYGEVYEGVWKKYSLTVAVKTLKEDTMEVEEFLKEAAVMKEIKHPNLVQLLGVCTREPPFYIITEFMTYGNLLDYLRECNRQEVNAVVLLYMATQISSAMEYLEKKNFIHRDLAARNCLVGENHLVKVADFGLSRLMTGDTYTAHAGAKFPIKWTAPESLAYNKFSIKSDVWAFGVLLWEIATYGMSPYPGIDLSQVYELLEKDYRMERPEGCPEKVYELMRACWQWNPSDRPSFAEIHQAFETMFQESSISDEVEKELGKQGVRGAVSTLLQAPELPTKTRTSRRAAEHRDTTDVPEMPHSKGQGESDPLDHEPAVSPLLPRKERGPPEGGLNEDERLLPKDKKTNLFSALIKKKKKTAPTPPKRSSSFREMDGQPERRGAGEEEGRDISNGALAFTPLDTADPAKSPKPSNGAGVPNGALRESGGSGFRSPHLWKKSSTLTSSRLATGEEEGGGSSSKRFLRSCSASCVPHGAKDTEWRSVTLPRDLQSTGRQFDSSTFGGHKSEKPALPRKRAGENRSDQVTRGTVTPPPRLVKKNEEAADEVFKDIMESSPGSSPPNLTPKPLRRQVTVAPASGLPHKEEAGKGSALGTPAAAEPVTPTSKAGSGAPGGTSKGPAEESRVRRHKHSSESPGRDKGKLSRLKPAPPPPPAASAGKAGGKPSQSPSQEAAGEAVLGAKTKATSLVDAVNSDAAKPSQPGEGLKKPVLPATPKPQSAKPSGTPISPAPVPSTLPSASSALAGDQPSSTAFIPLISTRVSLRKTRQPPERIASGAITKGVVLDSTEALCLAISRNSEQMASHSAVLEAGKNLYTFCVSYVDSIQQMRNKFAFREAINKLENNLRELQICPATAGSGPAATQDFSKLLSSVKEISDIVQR
Chain of CHK2(R145W) (h) (human) (O96017 5-543 R145W limits assumed): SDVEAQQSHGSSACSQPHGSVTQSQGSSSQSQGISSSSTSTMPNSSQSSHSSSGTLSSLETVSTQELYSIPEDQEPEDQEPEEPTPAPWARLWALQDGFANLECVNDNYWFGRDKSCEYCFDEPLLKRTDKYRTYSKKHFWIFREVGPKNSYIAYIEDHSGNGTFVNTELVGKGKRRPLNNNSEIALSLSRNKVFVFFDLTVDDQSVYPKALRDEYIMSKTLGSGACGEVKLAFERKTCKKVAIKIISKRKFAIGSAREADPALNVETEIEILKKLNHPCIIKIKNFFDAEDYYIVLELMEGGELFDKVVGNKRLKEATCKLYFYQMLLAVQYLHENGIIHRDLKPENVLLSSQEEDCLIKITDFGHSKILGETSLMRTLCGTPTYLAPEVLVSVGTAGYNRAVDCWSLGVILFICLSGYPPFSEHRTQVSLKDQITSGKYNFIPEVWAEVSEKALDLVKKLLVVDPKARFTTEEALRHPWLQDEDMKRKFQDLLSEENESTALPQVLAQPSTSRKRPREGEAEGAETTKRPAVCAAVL

% activity at 100 µM (Abl (h) (human)): 69%
% activity at 100 µM (CDK5/p35 (h) (human)): 79%
% activity at 100 µM [1]: 86%
% activity at 100 µM (CHK2(R145W) (h) (human)): 33%
% activity at 100 µM (EphA1 (h) (human)): 73%
% activity at 100 µM (ErbB4 (h) (human)): 40%
% activity at 100 µM [2]: 82%
% activity at 100 µM (IRAK1 (h) (human)): 95%
% activity at 100 µM (JNK1α1 (h) (human)): 97%
% activity at 100 µM (Lyn (h) (human)): 69%
% activity at 100 µM (MINK (h) (human)): 48%
% activity at 100 µM (Met(D1246N) (h) (human)): 82%
% activity at 100 µM (Met(Y1248C) (h) (human)): 84%
% activity at 100 µM (Mnk2 (h) (human)): 89%
% activity at 100 µM (PAK4 (h) (human)): 94%
% activity at 100 µM (PAK5 (h) (human)): 110%
% activity at 100 µM (PhKγ2 (h) (human)): 46%
% activity at 100 µM (PrKX (h) (human)): 61%
% activity at 100 µM (Rsk4 (h) (human)): 90%
% activity at 100 µM [3]: 97%
% activity at 100 µM (SAPK2b (h) (human)): 81%
% activity at 100 µM (SIK (h) (human)): 66%
% activity at 100 µM (TrkA (h) (human)): 25%
% activity at 100 µM (WNK3 (h) (human)): 77%
% activity at 100 µM (cKit (h) (human)): 53%
% activity at 100 µM (cKit(D816V) (h) (human)): 60%
Substance: MMI-0300 (peptide)
